Results: article PMC3064236

Target: Mcm2-7 heterohexamer (X. laevis (endogenous in egg extract)) (UniProt P55861)
Test: SEC + other: glycerol gradient sedimentation

Question: “Mcm2-7 heterohexamer, P55861 1-886; P49739 1-807; P30664 1-863; P55862 1-735; Q5FWY4 1-821; Q91876 1-720” was tested. Which stoichiometry N (hexamers in the complex) did it give?
Answer: 2
